B1: Cimzia®: biologic, certolizumab pegol (antibody, chains of the INN, looked up, V domains shown)
VH: EVQLVESGGGLVQPGGSLRLSCAASGYVFTDYGMNWVRQAPGKGLEWMGWINTYIGEPIYADSVKGRFTFSLDTSKSTAYLQMNSLRAEDTAVYYCARGYRSYAMDYWGQGTLVTVSS
VL: DIQMTQSPSSLSASVGDRVTITCKASQNVGTNVAWYQQKPGKAPKALIYSASFLYSGVPYRFSGSGSGTDFTLTISSLQPEDFATYYCQQYNIYPLTFGQGTKVEIK
modifications: Fab' PEG (pegol)
B2: IL-4: recombinant human IL-4 produced in Escherichia coli, R&D Systems catalogue number 204-IL/CF; SEQ ID NO: 3 (protein, listed as Homo sapiens)
chain: METGLYLETHRSERGLNLELEPRPRLEPHEPHELELEALACYSALAGLYASNPHEVALHISGLYHISLYSCYSASPILETHRLEGLNGLILEILELYSTHRLEASNSERLETHRGLGLNLYSTHRLECYSTHRGLLETHRVALTHRASPILEPHEALAALASERLYSASNTHRTHRGLLYSGLTHRPHECYSARGALAALATHRVALLEARGGLNPHETYRSERHISHISGLLYSASPTHRARGCYSLEGLYALATHRALAGLNGLNPHEHISARGHISLYSGLNLEILEARGPHELELYSARGLEASPARGASNLETRPGLYLEALAGLYLEASNSERCYSPRVALLYSGLALAASNGLNSERTHRLEGLASNPHELEGLARGLELYSTHRILEMETARGGLLYSTYRSERLYSCYSSERSER
modifications: human IL-4, Interleukin 4
B3: BDNF: recombinant human BDNF produced in Escherichia coli, R&D Systems catalogue number 248-BDB/CF; SEQ ID NO: 4 (protein, listed as Homo sapiens)
chain: HSDPARRGELSVCDSISEWVTAADKKTAVDMSGGTVTVLEKVPVSKGQLKQYFYETKCNPMGYTKEGCRGIDKRHWNSQCRTTQSYVRALTMDSKKRIGWRFIRIDTSCVCTLTIKRGR
modifications: human BDNF, human brain-derived neurotrophic factor

Assays:
[1] = tested on: ankylosing spondylitis (Bechterew's disease); format: in vivo, human; conditions: Patient 11; ended more than a year before; lost their effect within half a year
[2] = tested on: patient suffering from multiple sclerosis; test: treatment of a patient: SHILD-score, relapses, fatigue; format: in vivo, human; conditions: for subject's condition in multiple sclerosis: as indicated by the SHILD-score; for SHILD-score: multiple sclerosis
[3] = as can be seen from the examples

| Molecule | Effect of earlier treatment with biologics (patient history) [1] | fatigue in case of multiple sclerosis [2, 3] | relapses in case of multiple sclerosis [2, 3] | subject's condition in multiple sclerosis [2] | SHILD-score [2] |
| --- | --- | --- | --- | --- | --- |
| B1 | had little effect from the outset |  |  |  |  |
| B2 |  | reduction | avoiding | stabilization or even improvement | decreasing |
| B3 |  | very effectively relieving |  | stabilized or even improved | decreasing |
